{"source": "paper PMC11231340", "about": "“Werner helicase interacting protein 1 contributes to G-quadruplex processing in human cells”", "binders": {"B1": {"name": "MYC G4 partial duplex (structured_DNA)", "DNA 1": "TGAGGGTGGGTAGGGTGGGTGCGTCTGCGGCTGGCTCGAGGC", "DNA 2": "TTTGCCTCGAGCCAGCCGCAGACG"}, "B2": {"name": "CEB G4 partial duplex (structured_DNA)", "DNA 1": "AAGGGTGGGTGTAAGTGTGGGTGGGTGCGTCTGCGGCTGGCTCGAGGC", "DNA 2": "TTTGCCTCGAGCCAGCCGCAGACG"}}, "key": {"GST-WRNIP1 [1]": {"target": "T1, GST-WRNIP1 (Homo sapiens, UniProt Q96S55 1-665)", "T1 sequence": "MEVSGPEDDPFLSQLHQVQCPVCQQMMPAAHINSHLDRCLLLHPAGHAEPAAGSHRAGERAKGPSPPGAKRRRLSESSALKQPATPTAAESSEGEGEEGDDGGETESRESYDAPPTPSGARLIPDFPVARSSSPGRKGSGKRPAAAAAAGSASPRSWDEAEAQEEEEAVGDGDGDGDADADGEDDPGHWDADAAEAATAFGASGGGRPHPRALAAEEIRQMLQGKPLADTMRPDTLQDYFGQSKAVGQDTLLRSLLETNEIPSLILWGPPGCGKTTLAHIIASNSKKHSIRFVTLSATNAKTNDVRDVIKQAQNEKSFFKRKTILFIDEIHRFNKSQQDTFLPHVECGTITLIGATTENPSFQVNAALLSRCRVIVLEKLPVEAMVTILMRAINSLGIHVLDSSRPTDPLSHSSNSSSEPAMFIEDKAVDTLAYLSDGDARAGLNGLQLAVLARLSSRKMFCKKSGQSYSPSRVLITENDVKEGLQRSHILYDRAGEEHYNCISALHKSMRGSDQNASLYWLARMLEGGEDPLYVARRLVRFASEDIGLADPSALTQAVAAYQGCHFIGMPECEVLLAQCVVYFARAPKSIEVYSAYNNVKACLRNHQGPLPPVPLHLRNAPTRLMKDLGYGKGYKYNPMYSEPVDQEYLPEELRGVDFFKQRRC", "test": "fluorescence anisotropy; no ATP (ATP comparison series); Hill n 0.72; Anisotropy: 10 nM DNA, 50 mM Tris-HCl pH 7.5, 90 mM KCl, 5 mM EDTA, with or without 1 mM ATP and 1.25 mM MgCl2, 25 C; EMSA: 50 nM DNA, 50 mM Tris-HCl pH 7.5, 150 mM KCl, 15 min 25 C, 6% native gel; DNA folded in 25 mM Tris-HCl pH 7.5, 50 mM KCl", "details": "protein: recombinant; (GST fusion); label: 5' FITC; intramolecular G4 with 3' ssDNA tail of 21 nt"}, "GST-WRNIP1 [2]": {"target": "T1, GST-WRNIP1", "test": "fluorescence anisotropy; Hill n 0.55; Anisotropy: 10 nM DNA, 50 mM Tris-HCl pH 7.5, 90 mM KCl, 5 mM EDTA, with or without 1 mM ATP and 1.25 mM MgCl2, 25 C; EMSA: 50 nM DNA, 50 mM Tris-HCl pH 7.5, 150 mM KCl, 15 min 25 C, 6% native gel; DNA folded in 25 mM Tris-HCl pH 7.5, 50 mM KCl", "details": "protein: recombinant; (GST fusion); label: 5' FITC; intramolecular G4 with 3' ssDNA tail of 21 nt"}, "GST-WRNIP1 [3]": {"target": "T1, GST-WRNIP1", "test": "fluorescence anisotropy; 1 mM ATP; Hill n 0.66; Anisotropy: 10 nM DNA, 50 mM Tris-HCl pH 7.5, 90 mM KCl, 5 mM EDTA, with or without 1 mM ATP and 1.25 mM MgCl2, 25 C; EMSA: 50 nM DNA, 50 mM Tris-HCl pH 7.5, 150 mM KCl, 15 min 25 C, 6% native gel; DNA folded in 25 mM Tris-HCl pH 7.5, 50 mM KCl", "details": "protein: recombinant; (GST fusion); label: 5' FITC; intramolecular G4 with 3' ssDNA tail of 21 nt"}, "GST-WRNIP1 [4]": {"target": "T1, GST-WRNIP1", "test": "fluorescence anisotropy; Hill n 0.88; Anisotropy: 10 nM DNA, 50 mM Tris-HCl pH 7.5, 90 mM KCl, 5 mM EDTA, with or without 1 mM ATP and 1.25 mM MgCl2, 25 C; EMSA: 50 nM DNA, 50 mM Tris-HCl pH 7.5, 150 mM KCl, 15 min 25 C, 6% native gel; DNA folded in 25 mM Tris-HCl pH 7.5, 50 mM KCl", "details": "protein: recombinant; (GST fusion); label: 5' FITC on strand 1; 21 bp duplex at 3' end of strand 1; 5' ss G4 overhang 21 nt; strand 2 5' TTT overhang"}, "GST-WRNIP1 [5]": {"target": "T1, GST-WRNIP1", "test": "fluorescence anisotropy; Hill n 0.95; Anisotropy: 10 nM DNA, 50 mM Tris-HCl pH 7.5, 90 mM KCl, 5 mM EDTA, with or without 1 mM ATP and 1.25 mM MgCl2, 25 C; EMSA: 50 nM DNA, 50 mM Tris-HCl pH 7.5, 150 mM KCl, 15 min 25 C, 6% native gel; DNA folded in 25 mM Tris-HCl pH 7.5, 50 mM KCl", "details": "protein: recombinant; (GST fusion); label: 5' FITC; intramolecular G4 with 3' ssDNA tail"}, "GST-WRNIP1 [6]": {"target": "T1, GST-WRNIP1", "test": "fluorescence anisotropy; Hill n 1.1; Anisotropy: 10 nM DNA, 50 mM Tris-HCl pH 7.5, 90 mM KCl, 5 mM EDTA, with or without 1 mM ATP and 1.25 mM MgCl2, 25 C; EMSA: 50 nM DNA, 50 mM Tris-HCl pH 7.5, 150 mM KCl, 15 min 25 C, 6% native gel; DNA folded in 25 mM Tris-HCl pH 7.5, 50 mM KCl", "details": "protein: recombinant; (GST fusion); label: 5' FITC on strand 1; 21 bp duplex at 3' end of strand 1; 5' ss G4 overhang 27 nt; strand 2 5' TTT overhang"}, "GST-WRNIP1 [7]": {"target": "T1, GST-WRNIP1", "test": "fluorescence anisotropy; Hill n 0.96; Anisotropy: 10 nM DNA, 50 mM Tris-HCl pH 7.5, 90 mM KCl, 5 mM EDTA, with or without 1 mM ATP and 1.25 mM MgCl2, 25 C; EMSA: 50 nM DNA, 50 mM Tris-HCl pH 7.5, 150 mM KCl, 15 min 25 C, 6% native gel; DNA folded in 25 mM Tris-HCl pH 7.5, 50 mM KCl", "details": "protein: recombinant; (GST fusion); label: 5' FITC"}}}
{"binder": "TGAGGGTGGGTAGGGTGGGTGCGTCTGCGGCTGGCTCGAGGC (structured_DNA)", "note": "[MYC G4 ss (Myc2345)]", "values": [{"measurement": "Kd", "setting": "GST-WRNIP1 [1]", "result": "175 ± 43", "unit": "nM"}, {"measurement": "Kd", "setting": "GST-WRNIP1 [2]", "result": "184 ± 36", "unit": "nM"}, {"measurement": "Kd", "setting": "GST-WRNIP1 [3]", "result": "183 ± 52", "unit": "nM"}]}
{"binder": "B1", "values": [{"measurement": "Kd", "setting": "GST-WRNIP1 [4]", "result": "108 ± 45", "unit": "nM"}]}
{"binder": "AAGGGTGGGTGTAAGTGTGGGTGGGTGCGTCTGCGGCTGGCTCGAGGC (structured_DNA)", "note": "[CEB G4 ss (CEB25)]", "values": [{"measurement": "Kd", "setting": "GST-WRNIP1 [5]", "result": "65 ± 6", "unit": "nM"}]}
{"binder": "B2", "values": [{"measurement": "Kd", "setting": "GST-WRNIP1 [6]", "result": "221 ± 44", "unit": "nM"}]}
{"binder": "ACTCCCACCCATCCCACCCACGCAGACGCCGACCGAGCTCCG (ssDNA)", "note": "[C-rich control]", "values": [{"measurement": "Kd", "setting": "GST-WRNIP1 [7]", "result": "3.5 ± 0.511", "unit": "µM"}]}
